# B1: AtGSTU17 (U17) (Arabidopsis thaliana) (protein)
# chain: MASSDVKLIGAWASPFVMRPRIALNLKSVPYEFLQETFGSKSELLLKSNPVHKKIPVLLHADKPVSESNIIVEYIDDTWSSSGPSILPSDPYDRAMARFWAAYIDEKWFVALRGFLKAGGEEEKKAVIAQLEEGNAFLEKAFIDCSKGKPFFNGDNIGYLDIALGCFLAWLRVTELAVSYKILDEAKTPSLSKWAENFCNDPAVKPVMPETAKLAEFAKKIFPKPQA
# Assays:
# Assay in all cases: purified protein
# Conditions in all cases: GSH co-substrate, pH 7.0, 37 °C
# purified protein [1] = substrate: CCCCC/C=C/C=C/C(CCCCCCCC(=O)O)OO
# purified protein [2] = substrate: CCCC/C=C/C(C/C=C\CCCCCCCC(=O)O)OO
# purified protein [3] = substrate: CCCCC/C=C\CC(/C=C/CCCCCCC(=O)O)OO
# purified protein [4] = substrate: CCCCCC(/C=C/C=C/CCCCCCCC(=O)O)OO
# purified protein [5] = substrate: CCCCCC(/C=C/C=C\CCCCCCCC(=O)O)OO
protein,measurement,setting,value
B1,Km,purified protein [1],8.97 µM
same,kcat,purified protein [1],1.13 s⁻¹
same,Km,purified protein [2],20.4 µM
same,kcat,purified protein [2],2.71 s⁻¹
same,Km,purified protein [3],9.27 µM
same,kcat,purified protein [3],1.46 s⁻¹
same,Km,purified protein [4],24.65 µM
same,kcat,purified protein [4],2.44 s⁻¹
same,Km,purified protein [5],10.36 µM
same,kcat,purified protein [5],2.55 s⁻¹

# — paper doi:10.1101/2025.11.21.687491v1
